The results in this text go back to US20110282030A1 (MAYO FOUNDATION FOR MEDICAL EDUCATION AND RESEARCH, published 2011).

Where no end group is shown, it is not given here.

The target in experiment [1] is T1, human NPR-A (human, UniProt P16066 33-1061).
T1 construct: whole, on cells; also called hNPR-A; hNPRA
T1 sequence: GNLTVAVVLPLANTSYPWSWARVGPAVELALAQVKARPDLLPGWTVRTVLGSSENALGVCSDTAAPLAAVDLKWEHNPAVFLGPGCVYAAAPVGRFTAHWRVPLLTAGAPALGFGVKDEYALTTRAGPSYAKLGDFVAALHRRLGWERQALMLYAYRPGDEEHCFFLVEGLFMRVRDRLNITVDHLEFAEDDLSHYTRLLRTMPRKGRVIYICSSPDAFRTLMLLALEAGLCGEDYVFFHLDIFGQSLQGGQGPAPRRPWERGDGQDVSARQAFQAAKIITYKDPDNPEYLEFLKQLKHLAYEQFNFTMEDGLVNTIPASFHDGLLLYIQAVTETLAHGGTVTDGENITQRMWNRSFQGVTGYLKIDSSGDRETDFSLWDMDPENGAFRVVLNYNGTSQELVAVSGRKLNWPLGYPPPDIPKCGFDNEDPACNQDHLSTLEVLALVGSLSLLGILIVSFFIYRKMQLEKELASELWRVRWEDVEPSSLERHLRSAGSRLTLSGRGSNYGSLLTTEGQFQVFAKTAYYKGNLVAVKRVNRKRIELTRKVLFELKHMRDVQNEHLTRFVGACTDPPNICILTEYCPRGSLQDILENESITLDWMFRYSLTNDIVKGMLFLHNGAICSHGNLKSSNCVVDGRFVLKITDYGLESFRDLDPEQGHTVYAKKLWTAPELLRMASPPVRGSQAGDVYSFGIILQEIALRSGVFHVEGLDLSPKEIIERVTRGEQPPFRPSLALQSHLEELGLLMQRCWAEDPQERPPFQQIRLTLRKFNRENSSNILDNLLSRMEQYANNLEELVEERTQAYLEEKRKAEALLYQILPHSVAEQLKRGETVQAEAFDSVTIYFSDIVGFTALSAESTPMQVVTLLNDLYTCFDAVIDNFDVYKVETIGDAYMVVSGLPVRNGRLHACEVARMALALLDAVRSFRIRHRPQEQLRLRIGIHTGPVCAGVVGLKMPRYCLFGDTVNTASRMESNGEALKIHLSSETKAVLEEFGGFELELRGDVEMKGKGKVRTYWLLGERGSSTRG
As to the kind of experiment: not told; no binding experiment of DNP on NPR-A is described.

In experiment [2] the target is T2, human NPR-C (human, UniProt P17342 27-541).
T2 construct: whole, on cells; also called clearance receptor
T2 sequence: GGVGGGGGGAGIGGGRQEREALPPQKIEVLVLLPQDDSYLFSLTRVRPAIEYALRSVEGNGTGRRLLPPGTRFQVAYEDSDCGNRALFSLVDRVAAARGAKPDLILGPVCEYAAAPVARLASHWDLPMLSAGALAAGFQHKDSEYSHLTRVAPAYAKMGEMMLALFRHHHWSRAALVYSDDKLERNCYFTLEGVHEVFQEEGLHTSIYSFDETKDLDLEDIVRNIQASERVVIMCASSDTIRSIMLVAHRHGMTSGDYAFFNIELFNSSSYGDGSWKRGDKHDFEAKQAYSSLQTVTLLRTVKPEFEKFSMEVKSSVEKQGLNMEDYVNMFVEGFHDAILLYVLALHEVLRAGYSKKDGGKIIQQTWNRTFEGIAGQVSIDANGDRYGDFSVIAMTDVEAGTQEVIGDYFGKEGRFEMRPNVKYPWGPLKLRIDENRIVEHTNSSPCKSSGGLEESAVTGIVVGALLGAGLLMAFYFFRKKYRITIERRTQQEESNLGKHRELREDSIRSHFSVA
Put plainly: displacement of ^125I-ANP from NPR-C.

In experiment [3] the target is T3, human NPR-B (human, UniProt P20594 23-1047).
T3 sequence: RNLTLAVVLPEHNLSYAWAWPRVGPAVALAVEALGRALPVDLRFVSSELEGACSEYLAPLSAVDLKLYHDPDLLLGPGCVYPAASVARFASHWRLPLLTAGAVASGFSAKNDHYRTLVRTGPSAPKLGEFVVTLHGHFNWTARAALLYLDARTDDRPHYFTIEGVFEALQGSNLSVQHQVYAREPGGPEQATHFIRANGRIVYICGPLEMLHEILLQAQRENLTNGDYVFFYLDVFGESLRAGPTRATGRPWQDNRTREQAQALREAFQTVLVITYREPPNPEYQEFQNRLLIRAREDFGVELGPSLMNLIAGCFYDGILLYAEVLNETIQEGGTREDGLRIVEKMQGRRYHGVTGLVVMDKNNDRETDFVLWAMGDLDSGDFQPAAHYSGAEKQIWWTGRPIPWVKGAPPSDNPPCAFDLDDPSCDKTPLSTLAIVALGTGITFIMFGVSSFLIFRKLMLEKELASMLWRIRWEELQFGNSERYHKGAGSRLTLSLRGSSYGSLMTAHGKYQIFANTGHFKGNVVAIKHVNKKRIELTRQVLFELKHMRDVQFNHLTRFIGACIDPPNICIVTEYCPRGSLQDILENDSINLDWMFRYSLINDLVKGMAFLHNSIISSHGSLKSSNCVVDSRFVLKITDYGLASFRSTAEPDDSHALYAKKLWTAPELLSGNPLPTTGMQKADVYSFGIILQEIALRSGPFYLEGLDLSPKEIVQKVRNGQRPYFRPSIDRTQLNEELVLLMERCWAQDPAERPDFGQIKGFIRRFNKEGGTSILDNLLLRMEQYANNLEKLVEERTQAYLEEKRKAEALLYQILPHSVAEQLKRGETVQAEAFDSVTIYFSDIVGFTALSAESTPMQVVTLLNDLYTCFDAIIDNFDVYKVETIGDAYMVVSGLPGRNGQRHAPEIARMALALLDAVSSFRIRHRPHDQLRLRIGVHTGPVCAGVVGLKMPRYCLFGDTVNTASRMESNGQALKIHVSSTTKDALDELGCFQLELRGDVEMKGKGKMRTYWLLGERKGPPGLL
Put plainly: cell-based or functional assay.

The target in experiment [4] is T1, human NPR-A. Put plainly: competition ^125I-ANP binding on whole 293 cells expressing hNPR-A.

B1: DNP (ligand)
peptide: EVKYDPCFGHKIDRINHVSNLGCPSLRDPRPNAPSTSA
modifications: ends and bridges not checked; cysteine pairing not given here
notes: also called snake DNP polypeptide
As to B1, in experiment [1], the binding result was “binds”.

B2: Human ANP (ligand)
peptide: SLRRSSCFGGRMDRIGAQSGLGCNSFRY
With B2, the binding result in experiment [2] is listed as “binds”.

B3: Human CNP (ligand)
peptide: GLSKGCFGLKLDRIGSMSGLGC
Take B3: in experiment [3], the “EC50, cellular cGMP elevation in 293 cells expressing hNPR-B” value is 0.038 µM. The figures for the binding result in experiment [2] and in experiment [4] were “binds” and “no binding (tested: 10 µM)”, respectively.
